Laboratory results published in patent US12281162 (LANOVA MEDICINES DEVELOPMENT, dated 2025).

target: T1, human G-protein-coupled receptor family C group 5 member D (GPRC5D) (human, UniProt Q9NZD1 1-345); experiment: FACS, CHO-K1/GPRC5D
T1 construct: whole, on cells; also called human GPRC5D protein
T1 sequence (Q9NZD1 whole entry): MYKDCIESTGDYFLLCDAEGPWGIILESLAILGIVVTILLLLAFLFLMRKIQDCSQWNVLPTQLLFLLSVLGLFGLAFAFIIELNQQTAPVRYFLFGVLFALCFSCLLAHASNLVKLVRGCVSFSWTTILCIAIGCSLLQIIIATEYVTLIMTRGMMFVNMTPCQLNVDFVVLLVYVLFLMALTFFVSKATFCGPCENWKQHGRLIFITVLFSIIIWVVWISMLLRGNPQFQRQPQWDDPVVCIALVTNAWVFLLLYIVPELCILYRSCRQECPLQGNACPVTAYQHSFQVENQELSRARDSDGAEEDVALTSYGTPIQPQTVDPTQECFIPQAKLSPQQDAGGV

| Bottom | LogEC50 | Span | Top | Binder |
| --- | --- | --- | --- | --- |
| 4840 | 0.345 | 103000 | 108000 | 58-H2L2 (antibody, V domains shown, humanized 58F9G10, VH v2 x VL v2) VH: QVQLVQSGAEVKKPGASVKVSCKASGYSFTGYYIHWVRQAPGQGLEWIGYISSYNAATSFNQKFKGRVTFTVDTSTSTVYMELSSLRSEDTAVYYCARTELRGPWFAYWGQGTLVTVSS VL: DTQMTQSPSSLSASVGDRVTITCSASSSVSYMNWYQQKPGKAPKRLIYDTSKLASGVPSRFSGSGSGTDYTLTISSLQPEDFATYYCQQWSNNPLTFGQGTKLEIK |
| 4230 | 0.231 | 101000 | 105000 | 58-H1L3 (antibody, V domains shown, humanized 58F9G10, VH v1 x VL v3) VH: QVQLVQSGAEVKKPGASVKVSCKASGYSFTGYYIHWVRQAPGQGLEWMGYISSYNAATSFNQKFKGRVTMTRDTSTSTVYMELSSLRSEDTAVYYCARTELRGPWFAYWGQGTLVTVSS VL: DTQLTQSPSSLSASVGDRVTMTCSASSSVSYMNWYQQKPGKAPKRLIYDTSKLASGVPSRFSGSGSGTDYTLTISSMQPEDFATYYCQQWSNNPLTFGQGTKLEIK |
| 3620 | 0.378 | 106000 | 110000 | 58-H2L1 (antibody, V domains shown, humanized 58F9G10, VH v2 x VL v1) VH: QVQLVQSGAEVKKPGASVKVSCKASGYSFTGYYIHWVRQAPGQGLEWIGYISSYNAATSFNQKFKGRVTFTVDTSTSTVYMELSSLRSEDTAVYYCARTELRGPWFAYWGQGTLVTVSS VL: DIQMTQSPSSLSASVGDRVTITCSASSSVSYMNWYQQKPGKAPKLLIYDTSKLASGVPSRFSGSGSGTDFTLTISSLQPEDFATYYCQQWSNNPLTFGQGTKLEIK |
| 5500 | 0.263 | 109000 | 114000 | 58-H1L2 (antibody, V domains shown, humanized 58F9G10, VH v1 x VL v2) VH: QVQLVQSGAEVKKPGASVKVSCKASGYSFTGYYIHWVRQAPGQGLEWMGYISSYNAATSFNQKFKGRVTMTRDTSTSTVYMELSSLRSEDTAVYYCARTELRGPWFAYWGQGTLVTVSS VL: DTQMTQSPSSLSASVGDRVTITCSASSSVSYMNWYQQKPGKAPKRLIYDTSKLASGVPSRFSGSGSGTDYTLTISSLQPEDFATYYCQQWSNNPLTFGQGTKLEIK |

target: T1, human G-protein-coupled receptor family …; experiment: FACS, CHO-K1/human GPRC5D, hybridoma supernatant
Description: Antibodies harvested from the supernatants of the hybridomas were tested for their binding to the human GPRC5D protein expressed on CHO K1 cells was tested. CHO—K1 cells stably expressed human GPRC5D, were harvested from flasks. 100 µl of 1×10^6 cells/ml of cells were incubated with murine antibodies in 3-fold serial dilutions for 30 minutes on ice. After being washed with 200 µl of FACS buffer twice, cells were incubated with secondary antibody for 30 minutes on ice. Cells were washed with 200 µl of FACS buffer twice and transferred to BD Falcon 5 ml tube and analyzed by FACS.

| Bottom | LogEC50 | Span | Top | Binder |
| --- | --- | --- | --- | --- |
| -14700 | 0.964 | 2.07e+06 | 2.05e+06 | 58F9G10 (antibody, V domains shown, murine antibody from hybridoma supernatant) VH: EVQLQQSGPELVKTGASVKISCKASGYSFTGYYIHWVKQSHGKSLEWIGYISCYNGATSFNQKFKGKATFTVDTSSSTAYMQFNSLTSEDSAVYYCARTELRGPWFAYWGQGTLVTVSA VL: QTVLTQSPAIMSASPGEKVTMTCSASSSVSYMNWYQQKSGTSPKRWIYDTSKLASGVPARFSGSGSGTSYSLTISSMEAEDAATYYCQQWSNNPLTFGAGTKLELK |
| 10900 | 0.592 | 1.75e+06 | 1.76e+06 | 37B9C4 (antibody, V domains shown, murine antibody from hybridoma supernatant) VH: EVNLEESGGGLVQPGGSMKLSCVASGFTFSDYWMNWVRQSPEKGLEWVAEIRLKSNNYATHYAESVKGRFTISRDDSKSSVYLQMNNLRAEDTGIYYCTRPLLWFRRYYAMDYWGQGTSVTVSS VL: DIQMTQTTSSLSASLGDRITISCSASQGISNYLNWYQQKPDGTVKLLIYYTSSLHSGVPSRFSGSGSGTDYSLTISNLEPADIATYYCQQYSKLPFTFGSGTKLEIK |
| 25400 | 0.511 | 1.17e+06 | 1.2e+06 | 40A5B2 (antibody, V domains shown, murine antibody from hybridoma supernatant) VH: EVQLQQSGPELVKPGASVKMSCKASGYTFTRNIMHWVKQKPGQGLEWIGYINPYNAGSKYNEKFKGKATLTSDISSSTAYMELSSLTSEDSAVYYCAREEVYYRYGAWFAYWGHGTLVTVSA VL: DIVLTQSPASLAVSLGQRATISCRASQSVSTSSYSYMHWYQQKPGQPPKLLIKYASNLESGVPARFSGSGSGTDFTLNIHPVEEEDTATYYCQHSWEIPRTFGGGTKLEIK |
| 24000 | 0.947 | 1.76e+06 | 1.79e+06 | 38A10E9A11 (antibody, V domains shown, murine antibody from hybridoma supernatant) VH: QVQLQQSGAELARPGASVKMSCKASGYTFTTYTMHWVKQRPGQGLEWIGYINPSSGYTNYNQKFKDKATLTAGKSSSTAYMQLSSLTSEDSAVYYCASLRSRGYFDYWGRGTTLTVSS VL: DIVMTQSQKFLSTSVGDRVSITCKASQNVGTAVAWYQQKPGQSPKLLIYSASNRYTGVPDRFTGSGSGTDFTLTISNMQSEDLAGYFCQQYSSYPYTFGGGTKLEIK |

Second part, the binder before the results:

| Binder | Bottom | LogEC50 | Span | Top |
| --- | --- | --- | --- | --- |
| 2D3C12 (antibody, V domains shown, murine antibody from hybridoma supernatant) VH: QVQLQQSGAELVRPGTSVKVSCKASGYAFINYLIEWIKQRPGQGLEWIGMINPGSGGTNYNEKFKDKATLTADKSSSTAYMQLSSLTSDDSAVYFCARNWDVWGQGTTLTVSS VL: DVVMTQSPLSLPVSLGDQASVSCRSSQSLVHSTGNTYLHWYLQKPGQSPKLLIYKVSNRFSGVPDRFSGSGSGTDFTLKISRVEAEDLGVYFCSQSTHVPWTFGGGTKLEIK | 46100 | 0.454 | 789000 | 835000 |
| 21C3C11B3 (antibody, V domains shown, murine antibody from hybridoma supernatant) VH: QVQLQQSGAELVRPGTSVKVSCKASGYAFINYLIEWIKQRPGQGLEWIGMINPGSGGTNYNEKFKDKATLTADKSSSTAYMQLSSLTSDDSAVYFCARNWDVWGQGTTLTVSS VL: DVVMTQSPLSLPVSLGDQASVSCRSSQSLVHSTGNTYLHWYLQKPGQSPKLLIYKVSNRFSGVPDRFSGSGSGTDFTLKISRVEAEDLGVYFCSQSTHVPWTFGGGTKLEIK | 57000 | 0.654 | 1.45e+06 | 1.51e+06 |
| 34D4A10 (antibody, V domains shown, murine antibody from hybridoma supernatant) VH: QVQLQQSGAELVRPGTSVKVSCKASGYAFISYLIEWIKQRPGQGLEWIGMINPGSGGTNYNEKFKDKATLTADKSSSTAYMQLSSLTSDDSAVYFCARNWDVWGQGTTLTVSS VL: DVVMTQSPLSLPVSLGDQASVSCRSSQSLVHSTGNTYLHWYLQKPGQSPKLLIYKVSNRFSGVPDRFSGSGSGTDFTLKISRVEAEDLGVYFCSQSTHVPWTFGGGTKLEIK | 2740 | 1.02 | 919000 | 922000 |
| 14C2A11C6 (antibody, V domains shown, murine antibody from hybridoma supernatant; also called 14C2A1106) VH: QVHLQQSGAELARPGASVKMSCKASGYTFTTYTMHWVKQRPGQGLEWIGYINPNSAYTNYNQKFKDKATLTADKSSSTAYMQLSSLTSEDSAVYYCARRVLLLRVLDFFDYWGQGTTLTVSS VL: DVQITQSPSYLAASPGETITINCRASKSINKYLTWYQEKPGKTNKLLIYSGSTLQSGIPSRFSGSGSGSDFTLTISSLEPEDFAMYYCQQHNEYPLTFGTGTKLELK | 5570 | 0.993 | 723000 | 729000 |
| 6G10D9 (antibody, V domains shown, murine antibody from hybridoma supernatant) VH: QVQLQQSGAELARPGASVKMSCKASGYTFTTYTMHWVKQRPGQGLEWLGYINPSSGYTNYNQKFKDKATLTAGKSSSTAYMQLSSLTSEDSAVYYCASLRSRGYFDYWGQGTTLTVSS VL: DIVMTQSQTFMSTSVGDRVRITCKASQNVGTAVVWYQQKTGQSPRLLIYSASNRYTGVPDRFTGSGSGTDFTLTISNMQSEDLADFFCQQYSSYPYTFGGGTKLEIK | 6870 | 0.912 | 1.42e+06 | 1.43e+06 |
| 34D3H1 (antibody, V domains shown, murine antibody from hybridoma supernatant) VH: EVHLVESGGDLVKPGGSLKLSCAASGFTFSSYGMSWVRQTPDKRLEWVATISSGGSYTYYPDSVKGRFTISRDNAKNTLNLQMSSLKSEDTAMYYCARQGGDAMDYWGQGTSVTVSS VL: DIVLTQSPATLSVTPGDSVSLSCRASQSINNNLHWYQQKSHESPRLLIKYASQSISGIPSRFSGSGSGTDFTLSINSVETEDFGMYFCQQSNSRLTFGAGTKLELK | -13300 | 0.884 | 1.43e+06 | 1.41e+06 |
| 29B2C10 (antibody, V domains shown, murine antibody from hybridoma supernatant) VH: EVQLQQSGPELVKPGASMKLSCKASGYSFTGYTMHWVKQSHGENLEWIGLINPYNGGTNYNQKFKGKATLTVDKSSSTAYMELLSLTSEDSAVYYCSRWGLRRAMDYWGQGTSVTVSS VL: DIVMTQSQKFMSTSVGDRVSVTCKASQNVGSNVAWYQQKPGQSPKALIYSASYRYSGVPDRFTGNGSGTDFTLTISNVQSEDLAEYFCQQYYNSPWTFGGGTKLEIK | 68600 | 0.62 | 1.54e+06 | 1.61e+06 |
| 14F3H2 (antibody, V domains shown, murine antibody from hybridoma supernatant) VH: EVQLQQSGPELVKPGASMKISCKASGYSFTGYTMNWVKQSHGKNLEWIGLINPYNGGIRYNQKFKGKATLTVDKSSSTAYMELLSLTSEDSAVYYCARWGLRRAMDYWGQGTSVTVSS VL: DIVMTQSQKFMSTSVGDRVSVTCKASQNVGTNVAWYQQKPGQSPKALIYSASYRYSGVPDRFTGSGSGTDFTLTISNVQSEDLAEYFCQQYNSSPWTFGGGTKLEIK | 20400 | 0.874 | 852000 | 873000 |
| 26E1D12 (antibody, V domains shown, murine antibody from hybridoma supernatant) VH: EVQLQQSGPELVKPGASMKISCKASGYSFTGYTMNWVKQSHGKNLEWIGLINPYNGGTNYNQKFKGKATLAVDKSSSTAYMDLLSLTSEDSAVYYCSRWGLRRAMDYWGQGTSVTVSS VL: DIVMTQSQKFMSTSVGDRVSVTCKASQNVGSNVAWYQQKPGQSPKALIYSASYRYSGVPDRFTGSGSGTDFTLTISNVQSEDLAEYFCQQYNNSPWTFGGGTKLEIK | 52700 | 0.225 | 625000 | 678000 |
| 29A7H11H4C12 (antibody, V domains shown, murine antibody from hybridoma supernatant) VH: EVQLQQSGPELVKPGASMKISCKASGYSFTGYTMHWVKQSHGENLEWIGLINPYNGGTNYNQKFKGKATLTVDKSSSTAYMELLSLTSEDSAVYYCSRWGLRRAMDYWGQGTSVTVSS VL: DIVMTQSQKFMSTSIGDRVSVTCKASQNVGSNVAWYQQKPGQSPKALIYSASYRYSGVPDRFTGNGSGTDFTLTISNVQSEDLAEYFCQQYYNSPWTFGGGTKLEIK | 43400 | 0.738 | 1.42e+06 | 1.46e+06 |
